Measured values published in the supplement of paper PMC7877785.
± gives the uncertainty stated by the source.

Test: self-splicing fitness, log relative to wild type (ln ratio); higher = more splicing; Tetrahymena group I intron in knt gene, E. coli kanamycin selection, DiMSum; sequences stand for … in CUCUCU…GGAGGGAAAAGUUAUCAGGCAUGCACCUGGUAGCUAGUCUUUAAACCAAUAGAUUGCAUCGGUUUAAAAGGCAAGACCGUCAAAUUGCGGGAAAGGGGUCAACAGCCGUUCAGUACCAAGUCUCAGGGGAAACUUUGAGAUGGCCUUGCAAAGGGUAUGGUAAUAAGCUGACGGACAUGGUCCUAACCACGCAGCCAAGUCCUAAGUCAACAGAUCUUCUGUUGAUAUGGAUGCAGUUCACAGACUAAAUGUCGGUCGGGGAAGAUGUAUUCUUCUCAUAAGAUAUAGUCGGACCUCUCCUUAAUGGGAGCUAGCGGAUGAAGUGAUGCAACACUGGAGCCGCUGGGAACUAAUUUGUAUGCGAAAGUAUAUUGAUUAGUUUUGGAGUACUCGUGGUCG
Summary of the method: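 Pooled colonies went to amplicon sequencing on an Illumina HiSeq 2500 after six replicate transformations. The plates were LB agar with 100 μg/mL carbenicillin, 50 μM IPTG and 0.2% rhamnose, with or without 25 μg/mL kanamycin, incubated overnight at 37°C or 30°C. The E. coli BL21(DE3) library had all eight P1ex-region intron nucleotides randomised, the intron placed in the knt kanamycin-resistance gene on pET-22b(+). DiMSum fitness is the error-weighted combination of replicate fold changes, kanamycin against none, normalised to wild type.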

Sequence	self-splicing fitness (ln) (30 °C)	self-splicing fitness (ln) (37 °C)
UGUAAGCAAUAUUACGGAUU	-2.59 ± 0.12	-1.09 ± 0.12
UGUAAGCAAUAUUACGGCUC	-1.94 ± 0.19	-1.32 ± 0.29
UGUAAGCAAUAUUACGUACU	-0.07 ± 0.081	-0.136 ± 0.092
UGUAAGCAAUAUUACGUAGC		-1.96 ± 0.45
UGUAAGCAAUAUUACGUCGU	-3.66 ± 0.24	-1.97 ± 0.18
UGUAAGCAAUAUUACGUCUA	-0.00173 ± 0.09	0.151 ± 0.11
UGUAAGCAAUAUUACGUCUU	-1.74 ± 0.093	-0.338 ± 0.11
UGUAAGCAAUAUUACGUGCA	-0.738 ± 0.12	-0.62 ± 0.11
UGUAAGCAAUAUUACGUUUA	-0.814 ± 0.16	-1.51 ± 0.14
UGUCAGCAAUAUUACGAAUC	-2.79 ± 0.28	-1.08 ± 0.22
UGUCAGCAAUAUUACGAGAU	-3.11 ± 0.22	-2.56 ± 0.27
UGUCAGCAAUAUUACGCACA	-0.467 ± 0.083	-0.355 ± 0.093
UGUCAGCAAUAUUACGCCUG	0.351 ± 0.072	0.582 ± 0.11
UGUCAGCAAUAUUACGCGGC	-3.06 ± 0.24	-2.09 ± 0.31
UGUCAGCAAUAUUACGCGUA	-0.0687 ± 0.063	0.148 ± 0.073
UGUCAGCAAUAUUACGCUGU	-3.1 ± 0.23	-1.63 ± 0.19
UGUCAGCAAUAUUACGGAGA	-1.58 ± 0.1	-0.867 ± 0.091
UGUCAGCAAUAUUACGGAUU	-1.57 ± 0.083	-0.507 ± 0.12
UGUCAGCAAUAUUACGGCAU	-3.01 ± 0.15	-2.48 ± 0.23
UGUCAGCAAUAUUACGGCUG	-2.9 ± 0.18	-0.843 ± 0.18
UGUCAGCAAUAUUACGGGAA	-1.71 ± 0.12	-0.986 ± 0.11
UGUCAGCAAUAUUACGGGAG	-2.78 ± 0.17	-1.68 ± 0.14
UGUCAGCAAUAUUACGGGUC	-3.4 ± 0.14	-2.66 ± 0.15
UGUCAGCAAUAUUACGUAAU	-1.03 ± 0.08	-0.593 ± 0.089
UGUCAGCAAUAUUACGUACC	-0.242 ± 0.11	-0.159 ± 0.13

Sequence	self-splicing fitness (ln) (30 °C)	self-splicing fitness (ln) (37 °C)
UGUCAGCAAUAUUACGUCGG	-1.32 ± 0.078	-0.266 ± 0.099
UGUCAGCAAUAUUACGUUAG	-1.07 ± 0.067	-0.704 ± 0.065
UGUCAGCAAUAUUACGUUAU	-3.1 ± 0.12	-1.77 ± 0.11
UGUCAGCAAUAUUACGUUUG	-1.26 ± 0.061	0.085 ± 0.095
UGUGAGCAAUAUUACGAAAC		-1.59 ± 0.35
UGUGAGCAAUAUUACGAACC	-2.06 ± 0.24	-0.336 ± 0.27
UGUGAGCAAUAUUACGACCU	-0.867 ± 0.17	0.0453 ± 0.26
UGUGAGCAAUAUUACGAGGA	-2.55 ± 0.29	-2.89 ± 0.31
UGUGAGCAAUAUUACGAGGC	-3.2 ± 0.28	-3.1 ± 0.36
UGUGAGCAAUAUUACGAGGG	-3.77 ± 0.3	-3.54 ± 0.42
UGUGAGCAAUAUUACGCAAA	-3.07 ± 0.37	-1.8 ± 0.25
UGUGAGCAAUAUUACGCAGC		-1.77 ± 0.4
UGUGAGCAAUAUUACGCGCC	-2.07 ± 0.17	-1.9 ± 0.38
UGUGAGCAAUAUUACGCGUU	-2.62 ± 0.2	-1.89 ± 0.25
UGUGAGCAAUAUUACGCUGC	-1.9 ± 0.25	
UGUGAGCAAUAUUACGCUUG	-3.29 ± 0.31	-3.13 ± 0.47
UGUGAGCAAUAUUACGGAAG	-2.97 ± 0.25	-1.76 ± 0.26
UGUGAGCAAUAUUACGGGCG	-0.245 ± 0.1	0.233 ± 0.16
UGUGAGCAAUAUUACGGGGG	-3.23 ± 0.26	-2.35 ± 0.23
UGUGAGCAAUAUUACGGGUU	-3.22 ± 0.31	-1.59 ± 0.28
UGUGAGCAAUAUUACGGUAA	-2.56 ± 0.31	-2.25 ± 0.3
UGUGAGCAAUAUUACGGUCU	-3.01 ± 0.17	-2.19 ± 0.2
UGUGAGCAAUAUUACGGUGC	-3.57 ± 0.25	-1.77 ± 0.21
UGUGAGCAAUAUUACGUCGG	-2.11 ± 0.2	-1.35 ± 0.29
UGUGAGCAAUAUUACGUCUU	-2.9 ± 0.29	-2.27 ± 0.3

Sequence	self-splicing fitness (ln) (30 °C)	self-splicing fitness (ln) (37 °C)
UGUGAGCAAUAUUACGUGGU	-3.75 ± 0.23	-1.88 ± 0.17
UGUGAGCAAUAUUACGUGUC		-1.75 ± 0.28
UGUUAGCAAUAUUACGAAAA	-2.39 ± 0.46	-1.28 ± 0.22
UGUUAGCAAUAUUACGACAC	-3.43 ± 0.47	-2.08 ± 0.43
UGUUAGCAAUAUUACGACAU	-2.59 ± 0.021	-1.28 ± 0.035
UGUUAGCAAUAUUACGAGAA	-2.27 ± 0.34	-1.85 ± 0.38
UGUUAGCAAUAUUACGAGGC	-3.73 ± 0.43	-2.67 ± 0.38
UGUUAGCAAUAUUACGAUCA	-0.0398 ± 0.15	0.805 ± 0.15
UGUUAGCAAUAUUACGAUUG	-0.695 ± 0.084	-0.795 ± 0.12
UGUUAGCAAUAUUACGCACA	-1.21 ± 0.12	-0.549 ± 0.11
UGUUAGCAAUAUUACGCGGA	-0.526 ± 0.082	-0.401 ± 0.087
UGUUAGCAAUAUUACGCGGU	-4.19 ± 0.47	
UGUUAGCAAUAUUACGCGUA	-0.809 ± 0.12	-0.454 ± 0.13
UGUUAGCAAUAUUACGCGUC	-3.45 ± 0.33	-2.79 ± 0.36
UGUUAGCAAUAUUACGGAAU	-0.534 ± 0.34	-1.91 ± 0.38
UGUUAGCAAUAUUACGGACU	-0.161 ± 0.079	0.414 ± 0.093
UGUUAGCAAUAUUACGGCAU	-3.67 ± 0.32	-1.95 ± 0.27
UGUUAGCAAUAUUACGGCGC	-2.65 ± 0.21	-2.22 ± 0.27
UGUUAGCAAUAUUACGGGCA	-0.664 ± 0.16	0.194 ± 0.18
UGUUAGCAAUAUUACGGGCC	-1.76 ± 0.18	-1.6 ± 0.32
UGUUAGCAAUAUUACGGUUU	-2.82 ± 0.15	-2.02 ± 0.15
UGUUAGCAAUAUUACGUAGG	-2.19 ± 0.11	-0.461 ± 0.12
UGUUAGCAAUAUUACGUCCG	-0.342 ± 0.15	0.113 ± 0.22
UGUUAGCAAUAUUACGUCUA	-0.124 ± 0.072	-0.175 ± 0.071
UGUUAGCAAUAUUACGUCUG	-0.698 ± 0.12	0.393 ± 0.15

Sequence	self-splicing fitness (ln) (30 °C)	self-splicing fitness (ln) (37 °C)
UGUUAGCAAUAUUACGUGAA	-2.38 ± 0.16	-1.07 ± 0.13
UGUUAGCAAUAUUACGUGCA	-0.172 ± 0.15	0.0583 ± 0.19
UGUUAGCAAUAUUACGUGGA	-1.1 ± 0.22	-1.62 ± 0.15
UUAAAGCAAUAUUACGAAAG	-1.66 ± 0.11	-1.13 ± 0.17
UUAAAGCAAUAUUACGAACC	-1.34 ± 0.18	-0.963 ± 0.23
UUAAAGCAAUAUUACGAAGA	-1.19 ± 0.12	-0.63 ± 0.17
UUAAAGCAAUAUUACGAUAG	-0.00915 ± 0.088	-0.00163 ± 0.12
UUAAAGCAAUAUUACGCAGA	-0.209 ± 0.11	-0.133 ± 0.13
UUAAAGCAAUAUUACGCAGG	-0.165 ± 0.12	-0.592 ± 0.15
UUAAAGCAAUAUUACGCUUG	-0.897 ± 0.096	0.0122 ± 0.12
UUAAAGCAAUAUUACGGAAC	-1.08 ± 0.23	-1.69 ± 0.37
UUAAAGCAAUAUUACGGCAU	-0.866 ± 0.11	0.331 ± 0.12
UUAAAGCAAUAUUACGGCUU	-1.44 ± 0.082	-0.99 ± 0.11
UUAAAGCAAUAUUACGGGGU		-2.21 ± 0.3
UUAAAGCAAUAUUACGUACG	0.121 ± 0.083	0.746 ± 0.1
UUAAAGCAAUAUUACGUCGC	-3.09 ± 0.21	-2.18 ± 0.23
UUAAAGCAAUAUUACGUCUA	0.0872 ± 0.095	0.626 ± 0.11
UUAAAGCAAUAUUACGUCUC	-2.76 ± 0.13	-1.4 ± 0.13
UUAAAGCAAUAUUACGUGUG	-0.972 ± 0.045	-0.4 ± 0.06
UUAAAGCAAUAUUACGUUGU	-3.19 ± 0.13	-1.4 ± 0.13
UUAAAGCAAUAUUACGUUUG	-2.18 ± 0.087	-0.699 ± 0.093
UUACAGCAAUAUUACGAAAA	-2.35 ± 0.17	-0.806 ± 0.14
